From patent publication US20210269525A1 (BIOCYTOGEN PHARMACEUTICALS BEIJING, published 2021)
Read-outs that look alike come from different tables or passages of the source.

T1: Cynomolgus CD3 epsilon Protein, His Tag (Acrobiosystems, Cat #CDE-05226) (cynomolgus (Macaca fascicularis), UniProt Q95LI5 22-117)
T1 construct: also called monkey CD3e; not shown: His tag
T1 sequence: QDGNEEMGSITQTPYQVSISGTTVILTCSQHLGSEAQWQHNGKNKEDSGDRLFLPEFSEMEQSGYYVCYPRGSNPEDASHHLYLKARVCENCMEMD


Tests used:
[1] = molecular target: T2, Histidine-tagged human CD3e protein (human, UniProt P07766 23-126); assay: SPR (Biacore), human CD3e
T2 construct: also called hCD3e-His; not shown: His tag

[2] = molecular target: T3, human CD3e (T-cell surface glycoprotein CD3 epsilon chain) (human, UniProt P07766 23-207); assay: flow cytometry, human PBMC, antibody 1 µg/mL, anti-human IgG Fc-Alexa Fluor647 (1:500), anti-hTcRβ-PerCP (1:30)
T3 construct: Target of the anti-hCD3e antibodies on human PBMC, Jurkat cells and cells expressing human CD3e; on T cells it is part of the CD3/TCR complex; also called hCD3e; CD3e on human PBMC
Procedure: (§1) PBMC cells were collected from a human subject. After being thawed, the cells were cultured for 3-4 hours. The medium was then discarded, and the cells were resuspended in phosphate-buffered saline (PBS). The cell concentration was then adjusted to 2×10⁶/25 μl PBS.
(§2) A 96-well plate was prepared. 25 ul of cell suspension was added to each well. […] The cells and the antibodies were incubated. After centrifuge, the residues were discarded. The samples were washed again. 25 ul of PBS was then added to each well to resuspend cells.
(§3) Anti-human IgG Fc-Alexa Fluror647 (1:500) and anit-hTcRβ PerCP (1:30) were then added to each well. The cells and the antibodies were incubated and then the cells were washed again by PBS. 300 ul of PBS was then added to each well to resuspend the cells. FACS was performed.

[3] = molecular target: T3, human CD3e (T-cell surface glycoprotein …); assay: flow cytometry, human PBMC, antibody 10 µg/mL, anti-human IgG Fc-Alexa Fluor647 (1:500), anti-hTcRβ-PerCP (1:30)
Procedure: as §1
A 96-well plate was prepared. 25 ul of cell suspension was added to each well. Anti-hCD3e antibodies with different combinations of humanized 1B1 heavy chain variants and humanized 1B1 light chain variants were diluted to 20 ug/ml (2×) in PBS, and were added to the 96-well plate. The cells and the antibodies were incubated. After centrifuge, the residues were discarded. The samples were washed again. 25 ul of PBS was then added to each well to resuspend cells.
as §3

[4] = molecular target: T3, human CD3e (T-cell surface glycoprotein …); assay: flow cytometry, human PBMC, antibody 0.1 µg/mL, anti-human IgG Fc-Alexa Fluor647 (1:500), anti-hTcRβ-PerCP (1:30)
Procedure: as §1, §2, §3

[5] = molecular target: T4, monkey CD3e (Macaca fascicularis) on PBMC (Macaca fascicularis, UniProt Q95LI5 22-198); assay: flow cytometry, Macaca fascicularis PBMC, antibody concentration not given, anti-human IgG Fc-Alexa Fluor647 (1:500), anti-hTcRβ-PerCP (1:30)
T4 construct: Target on PBMC from Macaca fascicularis; also called mfCD3e; monkey PBMC
Procedure: A 96-well plate was prepared. 25 ul of cell suspension was added to each well. Anti-hCD3 antibodies were added to the 96-well plate. The cells and the antibodies were incubated for 15 minutes at 4° C. 185 ul PBS was then added to each well. After centrifuge at 2000 rpm for 5 minutes, the medium was discarded. The samples were washed again. 25 ul of PBS was then added to resuspend cells.
Anti-human IgG Fc-Alexa Fluror647 (1:500) and anti-hTcRβ PerCP (1:30) were then added to each well. The cells and the antibodies were incubated for 15 minutes at 4° C. 185 ul PBS was then added to each well. After centrifuge, the residues were discarded. The samples were washed again. 25 ul of PBS was then added to resuspend cells. […] In contrast, anti-hTcRβ PerCP cannot bind to monkey PBMC.

[6] = molecular target: T3, human CD3e (T-cell surface glycoprotein …); assay: cell-based or functional assay
[7] = molecular target: T2, Histidine-tagged human CD3e protein; assay: SPR (Biacore), human CD3e; remark: listed apart in the source
[8] = molecular target: T1, Cynomolgus CD3 epsilon Protein, His Tag …; assay: SPR (Biacore), cynomolgus CD3e His tag
Procedure: The binding affinity of the anti-hCD3e antibodies with monkey CD3e (Cynomolgus CD3 epsilon Protein (SEQ ID NO: 39 AA Gln 22-Asp 117), His Tag, Acrobiosystems, Cat #CDE-05226) were also measured using surface plasmon resonance (SPR) using Biacore (Biacore, INC, Piscataway N.J.) by the methods as described in the examples.

[9] = molecular target: T3, human CD3e (T-cell surface glycoprotein …); assay: flow cytometry, human PBMC, antibody 0.1 ug/mL, anti-human IgG Fc-Alexa Fluor647 (1:500), anti-hTcRβ-PerCP (1:30)
Procedure: as §1, §2, §3

[10] = molecular target: T3, human CD3e (T-cell surface glycoprotein …); assay: flow cytometry, human PBMC, antibody 0.01 ug/mL, anti-human IgG Fc-Alexa Fluor647 (1:500), anti-hTcRβ-PerCP (1:30)
Procedure: as §1, §2, §3

[11] = molecular target: T3, human CD3e (T-cell surface glycoprotein …); assay: flow cytometry, human PBMC, antibody 1 ug/mL, anti-human IgG Fc-Alexa Fluor647 (1:500), anti-hTcRβ-PerCP (1:30)
Procedure: as §1, §2, §3

upper left quadrant, percent of cells AF647+ / hTcRβ-PerCP- [5] | upper right quadrant, percent of cells AF647+ / hTcRβ-PerCP+ [5] | EC50, luciferase of Jurkat-Luc-NFAT cells; antibody from supernatant [6] | Kd [7] | koff [7] | kon [7] | upper left quadrant, percent of cells AF647+ / hTcRβ-PerCP- [9] | upper right quadrant, percent of cells AF647+ / hTcRβ-PerCP+ [9] | upper left quadrant, percent of cells AF647+ / hTcRβ-PerCP- [10] | upper right quadrant, percent of cells AF647+ / hTcRβ-PerCP+ [10] | upper left quadrant, percent of cells AF647+ / hTcRβ-PerCP- [11] | upper right quadrant, percent of cells AF647+ / hTcRβ-PerCP+ [11] | other results | Binder
86.8% | 9.46% |  |  |  |  |  |  |  |  |  |  | Kd [1]: 0.718 nM; koff [1]: 0.000501 s⁻¹; kon [1]: 698000 M⁻¹ s⁻¹; upper left quadrant, percent of cells AF647+ / hTcRβ-PerCP- [2]: 11.6%; upper right quadrant, percent of cells AF647+ / hTcRβ-PerCP+ [2]: 58.1%; upper left quadrant, percent of cells AF647+ / hTcRβ-PerCP- [3]: 9.61%; upper right quadrant, percent of cells AF647+ / hTcRβ-PerCP+ [3]: 63.7%; upper left quadrant, percent of cells AF647+ / hTcRβ-PerCP- [4]: 11.8%; upper right quadrant, percent of cells AF647+ / hTcRβ-PerCP+ [4]: 54.5% | 1B1-H3K3-IgG1-LALA (antibody, V domains shown, Humanized; human IgG1 with LALA mutations; also called H3K3 (humanized 1B1)) VH: QVQLVQSGAEVKKPGASVKLSCKASGYTFTSYWMHWVRQRHGQGLEWIGNIYPDSGTTNYGEKFKTRVTLTVDTSTSTAYMELSSLRSEDTAVYYCTRDTSGQYYFDYWGQGTLVTVSS VL: DIVMTQSPDSLAVSAGERVTMNCKSSQSLLNSRTRKNYLAWYQHKPGQSPKLLIYWASTRESGVPDRFSGSGSGTDFTLTISSVQAEDVAVYYCVQSFSLRAFGGGTKLEIK
44.2% | 3.1% | 0.247 µg/mL | 1.96 nM | 0.000134 s⁻¹ | 68400 M⁻¹ s⁻¹ | 8.05% | 53.3% | 2.42% | 11.6% |  |  | EC50, luciferase of Jurkat-Luc-NFAT cells; purified antibody [6]: 0.263 µg/mL; Kd [8]: 8.21 nM; koff [8]: 0.000411 s⁻¹; kon [8]: 50100 M⁻¹ s⁻¹ | 10A4-H2K2-IgG1-LALA (antibody, V domains shown, Humanized; human IgG1 with LALA mutations; also called H2K2 (humanized 10A4)) VH: QVQLVQSGAEVKKPGASVKISCKASGYTFTSYYIHWVRQAPGQRLEFIGWIYPGNVNAKYNEKFKGRATITTDKSASTAYMELSSLRSEDTAVYYCAIKGGNYDWGQGTLVTVSS VL: DVVMTQSPLSLPVTLGQPASISCQSSQSLLDSDGKTYLNWLQQRPGQSPRRLIYLVSKLGSGVPDRFSGSGSGTDFTLKISRVEAEDVGVYYCWQGTHFPRTFGGGTKLEIK
52% | 2.39% | 0.198 µg/mL | 2.12 nM | 0.00014 s⁻¹ | 65900 M⁻¹ s⁻¹ | 10.7% | 55.6% | 2.62% | 12.9% | 14.5% | 75% |  | 10A4-H3K1-IgG1-LALA (antibody, V domains shown, Humanized; human IgG1 with LALA mutations; also called H3K1 (humanized 10A4)) VH: QVQLVQSGAEVKKPGASVKISCKASGYTFTSYYIHWVRQRPGQRLEFIGWIYPGNVNAKYNEKFKGRATLTTDKSASTAYMELSSLRSEDTAVYFCAIKGGNYDWGQGTLVTVSS VL: DVVMTQSPLSLPVTLGQPASISCQSSQSLLDSDGKTYLNWLQQRPGQSPRRLIYLVSKLGSGVPDRFSGSGSGTDFTLKISRVEAEDVGVYYCWQGTHFPRTFGGGTKVEIK
45.1% | 1.69% | 0.205 µg/mL | 2.02 nM | 0.000126 s⁻¹ | 62100 M⁻¹ s⁻¹ | 12.2% | 61.3% | 2.75% | 15.2% | 12.4% | 75.8% |  | 10A4-H3K2-IgG1-LALA (antibody, V domains shown, Humanized; human IgG1 with LALA mutations; also called H3K2 (humanized 10A4)) VH: QVQLVQSGAEVKKPGASVKISCKASGYTFTSYYIHWVRQRPGQRLEFIGWIYPGNVNAKYNEKFKGRATLTTDKSASTAYMELSSLRSEDTAVYFCAIKGGNYDWGQGTLVTVSS VL: DVVMTQSPLSLPVTLGQPASISCQSSQSLLDSDGKTYLNWLQQRPGQSPRRLIYLVSKLGSGVPDRFSGSGSGTDFTLKISRVEAEDVGVYYCWQGTHFPRTFGGGTKLEIK
46% | 2.58% | 0.475 µg/mL | 1.73 nM | 0.000107 s⁻¹ | 62100 M⁻¹ s⁻¹ | 9.79% | 54.8% | 2.66% | 14% | 14.3% | 74.7% |  | 10A4-H3K3-IgG1-LALA (antibody, V domains shown, Humanized; human IgG1 with LALA mutations; also called H3K3 (humanized 10A4)) VH: QVQLVQSGAEVKKPGASVKISCKASGYTFTSYYIHWVRQRPGQRLEFIGWIYPGNVNAKYNEKFKGRATLTTDKSASTAYMELSSLRSEDTAVYFCAIKGGNYDWGQGTLVTVSS VL: not shown
